Reference: publication PMC10998906 (NPJ Vaccines, 2024)

Target: HA (NL03, A/Netherlands/213/2003(H3N2)) (Influenza A virus …, strain)
Experiment: negative-stain EM
Details: both partners purified

B1: CR9114 Fab (Fab, V domains shown)
VH: QVQLVQSGAEVKKPGSSVKVSCKSSGGTSNNYAISWVRQAPGQGLDWMGGISPIFGSTAYAQKFQGRVTISADIFSNTAYMELNSLTSEDTAVYFCARHGNYYYYSGMDVWGQGTTVTVSS
VL: QSALTQPPAVSGTPGQRVTISCSGSDSNIGRRSVNWYQQFPGTAPKLLIYSNDQRPSVVPDRFSGSKSGTSASLAISGLQSEDEAEYYCAAWDDSLKGAVFGGGTQLTVL
  stoichiometry N: 1 Fab per particle
